Assay results taken from patent US20250295803A1, “5T4 ANTIBODY-DRUG CONJUGATES AND USES THEREOF” (EXELIXIS, INC., priority 2022, published 2025).
Residue numbers refer to the chain shown, from its start. Each block holds one molecule with its values, some of them ahead of it.

How the values were obtained:
[1] = biological target: T1, biotinylated mouse 5T4 with His-Avi tag (produced in-house) (mouse, UniProt Q9Z0L0 32-361, biotin on the Avi tag); experiment: Octet, biotinylated antigen on streptavidin biosensors, antibody at 500 nM (bivalent)
T1 construct: also called Mouse 5T4 Octet (bivalent); not shown: C-terminal 6-His-Avi tag
T1 sequence: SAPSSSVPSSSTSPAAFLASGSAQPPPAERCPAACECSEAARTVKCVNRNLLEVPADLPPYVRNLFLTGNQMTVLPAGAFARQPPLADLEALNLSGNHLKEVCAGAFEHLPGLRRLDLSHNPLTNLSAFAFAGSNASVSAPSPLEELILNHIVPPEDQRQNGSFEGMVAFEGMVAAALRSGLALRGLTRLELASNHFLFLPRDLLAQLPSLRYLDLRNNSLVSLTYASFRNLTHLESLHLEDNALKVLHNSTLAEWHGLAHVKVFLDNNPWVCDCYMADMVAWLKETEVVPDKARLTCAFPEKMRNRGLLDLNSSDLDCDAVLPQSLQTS

[2] = biological target: T2, biotinylated cynomolgus 5T4 with His-Avi tag (produced in-house) (cynomolgus monkey, UniProt Q4R8Y9 35-355, biotin on the Avi tag); experiment: as above
T2 construct: also called cyno 5T4; Cyno 5T4 Octet (bivalent); not shown: C-terminal 6-His-Avi tag
T2 sequence: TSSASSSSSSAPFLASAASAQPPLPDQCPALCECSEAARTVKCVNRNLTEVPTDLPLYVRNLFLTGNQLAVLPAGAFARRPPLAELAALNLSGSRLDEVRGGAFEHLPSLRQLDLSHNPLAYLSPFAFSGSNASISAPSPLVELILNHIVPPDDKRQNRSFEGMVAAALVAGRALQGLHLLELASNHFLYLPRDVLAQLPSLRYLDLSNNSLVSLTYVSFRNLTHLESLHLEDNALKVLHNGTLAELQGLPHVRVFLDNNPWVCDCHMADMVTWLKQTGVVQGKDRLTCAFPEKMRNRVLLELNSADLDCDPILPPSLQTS

[3] = biological target: T3, cynomolgus 5T4 on cells (HEK-cyno-5T4, transfected HEK293 and CHO cells) (cynomolgus monkey, UniProt Q4R8Y9 35-420); experiment: cell binding on transfected HEK293 and CHO cells
T3 construct: also called HEK-cyno-5T4 cells
T3 sequence: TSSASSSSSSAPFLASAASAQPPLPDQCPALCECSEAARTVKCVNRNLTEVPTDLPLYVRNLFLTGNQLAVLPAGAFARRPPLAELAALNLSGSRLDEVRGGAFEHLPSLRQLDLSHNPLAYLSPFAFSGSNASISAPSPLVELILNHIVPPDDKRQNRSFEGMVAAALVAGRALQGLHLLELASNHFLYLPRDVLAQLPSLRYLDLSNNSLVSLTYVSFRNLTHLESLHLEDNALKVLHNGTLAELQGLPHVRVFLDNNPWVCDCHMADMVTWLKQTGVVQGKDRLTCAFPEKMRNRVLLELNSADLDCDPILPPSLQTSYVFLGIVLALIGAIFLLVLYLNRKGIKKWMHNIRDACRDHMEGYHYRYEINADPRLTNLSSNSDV

[4] = biological target: T3, cynomolgus 5T4 on cells (HEK-cyno-5T4, …); experiment: flow cytometry on HEK-cyno-5T4 cells
[5] = biological target: T2, biotinylated cynomolgus 5T4 with …; experiment: summary of Examples 2-5; form of the antigen not given
human 5T4 = biological target: T4, human 5T4 (Homo sapiens, UniProt Q13641); experiment: Octet bivalent binding assay, human 5T4; design: The extracellular domain of human 5T4 was purchased from Acro Biosystems (biotinylated human 5T4 His-AVITAG™ Acro Cat No. TPG-H83Eb) or produced; made in house; key: +: An increase in signal during the association step above the negative control was considered as binding to the antigen; conditions: 200 nM biotinylated antigen immobilized, antibody at 500 nM
T4 sequence (Q13641 32-355 limits assumed): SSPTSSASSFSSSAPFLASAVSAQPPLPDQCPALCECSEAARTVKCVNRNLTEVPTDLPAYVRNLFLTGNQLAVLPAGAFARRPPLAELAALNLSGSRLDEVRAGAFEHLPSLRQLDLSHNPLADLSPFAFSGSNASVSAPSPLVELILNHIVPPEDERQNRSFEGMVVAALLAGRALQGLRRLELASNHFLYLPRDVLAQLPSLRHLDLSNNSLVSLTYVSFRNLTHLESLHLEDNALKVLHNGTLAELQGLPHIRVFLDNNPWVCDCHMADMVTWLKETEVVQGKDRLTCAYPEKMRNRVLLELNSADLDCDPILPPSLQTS
From the text: (§1) Bivalent binding assays were employed to provide data on whether antibodies with VH/VL obtained by the phage display in Example 1 bound immobilized 5T4 from all three clinically relevant species: human, cynomolgus monkey (cyno), and mouse. For the bivalent binding and cross-reactivity assays the 5T4 human, cyno, and mouse antigens were synthesized using sequences from the protein database and expressed as biotinylated proteins using a his-avi tag and in vivo biotinylation with co-expressed BirA enzyme.
(§2) A standard Octet-based assay was used to determine qualitatively if each antibody bound to each antigen. For these assays, 200 nM biotinylated antigens were immobilized on streptavidin biosensors in 1× kinetic buffer (ForteBio). The loaded sensors were then dipped in wells containing an antibody of interest at 500 nM and the association binding signal was monitored. An increase in signal during the association step above the negative control was considered as binding to the antigen.

cyno 5T4 = biological target: T5, cyno 5T4 (Macaca fascicularis, UniProt Q4R8Y9); experiment: Octet bivalent binding assay, cyno 5T4; design: species or system cynomolgus monkey; key: +: An increase in signal during the association step above the negative control was considered as binding to the antigen; conditions: 200 nM biotinylated antigen immobilized, antibody at 500 nM
T5 construct: made in house
T5 sequence (Q4R8Y9 35-355 limits assumed): T2 sequence
From the text: as §1, §2

mouse 5T4 = biological target: T6, mouse 5T4 (Mus musculus, UniProt Q9Z0L0); experiment: Octet bivalent binding assay, mouse 5T4; design: key: +: An increase in signal during the association step above the negative control was considered as binding to the antigen; conditions: 200 nM biotinylated antigen immobilized, antibody at 500 nM
T6 construct: made in house
T6 sequence (Q9Z0L0 32-361 limits assumed): T1 sequence
From the text: as §1, §2

binding result [1]: binds
binding result [2]: binds
binding result [3]: binds
B1: mAbA17 (antibody, V domains shown)
VH: EVQLVESGGGLVQPGGSLRLSCAASGFTFSRYWIHWVRQAPGKGLEWVAAIFPYSGSTLYADSVKGRFTISADTSKNTAYLQMNSLRAEDTAVYYCARSPSRSILPSGLDYWGQGTLVTVSS
VL: DIQMTQSPSSLSASVGDRVTITCRASQSVSSAVAWYQQKPGKAPKLLIYSASSLYSGVPSRFSGSRSGTDFTLTISSLQPEDFATYYCQQGDGSPYTFGQGTKVEIKR
notes: also called Antibody mAbA17

binding result [4]: binds
binding result [1]: binds
binding result [2]: binds
B4: mAbA15 (antibody, V domains shown)
VH: EVQLVESGGGLVQPGGSLRLSCAASGFTFSSYYIHWVRQAPGKGLEWVAYITSTGSYTEYADSVKGRFTISADTSKNTAYLQMNSLRAEDTAVYYCARYDRSTRYSGLDYWGQGTLVTVSS
VL: B1 VL with G91A, D92Y, G93A, S94T, Y96V
notes: also called Antibody mAbA15

The next lines start with the molecule.

B2: mAbA4 (antibody, V domains shown)
VH: EVQLVESGGGLVQPGGSLRLSCAASGFTFSRYYIHWVRQAPGKGLEWVAFISPGGSYTYYADSVKGRFTISADTSKNTAYLQMNSLRAEDTAVYYCAREYYSMGVLDYWGQGTLVTVSS
VL: B1 VL with G91A, D92Y, G93E
notes: also called Antibody mAbA4
binding result [4]: binds
binding result [5]: binds

B3: mAbA17: 5T4 antibody comprising VH of SEQ ID NO:62 and VL of SEQ ID NO:63 (antibody, V domains shown)
VH: B1 VH
VL: DIQMTQSPSSLSASVGDRVTITCRASQSVSSAVAWYQQKPGKAPKLLIYSASSLYSGVPSRFSGSRSGTDFTLTISSLQPEDFATYYCQQGDGSPYTFGQGTKVEIK
modifications: Antibody mAbA17 VH Sequence; Antibody mAbA17 VL Sequence
Human 5T4 Octet (bivalent) (human 5T4): +
Cyno 5T4 Octet (bivalent) (cyno 5T4): +
Mouse 5T4 Octet (bivalent) (mouse 5T4): +

B5: mAbA15: 5T4 antibody comprising VH of SEQ ID NO:44 and VL of SEQ ID NO:45 (antibody, V domains shown)
VH: B4 VH
VL: B3 VL with G91A, D92Y, G93A, S94T, Y96V
modifications: Antibody mAbA15 VH Sequence; Antibody mAbA15 VL Sequence
Human 5T4 Octet (bivalent) (human 5T4): +
Cyno 5T4 Octet (bivalent) (cyno 5T4): +
Mouse 5T4 Octet (bivalent) (mouse 5T4): +
